# Laboratory results reported in article doi:10.1101/2022.07.31.502239, “Structural basis for assembly and lipid-mediated gating of LRRC8A:C volume-regulated anion channels” (bioRxiv, 2022).
# B1: HVCN1 with C-terminal EGFP and HA-tag (natural protein, UniProt Q96D96 1-273, looked up)
# chain: MATWDEKAVTRRAKVAPAERMSKFLRHFTVVGDDYHAWNINYKKWENEEEEEEEEQPPPTPVSGEEGRAAAPDVAPAPGPAPRAPLDFRGMLRKLFSSHRFQVIIICLVVLDALLVLAELILDLKIIQPDKNNYAAMVFHYMSITILVFFMMEIIFKLFVFRLEFFHHKFEILDAVVVVVSFILDIVLLFQEHQFEALGLLILLRLWRVARIINGIIISVKTRSERQLLRLKQMNVQLAAKIQHLEFSCSEKEQEIERLNKLLRQHGLLGEVN
# notes: HVCN1 (HV1) voltage-gated proton channel; Control for subunit counting; also called HV1-EGFP; HV1; source: LRRC8 knockout HEK293 cells, transfected, GDN detergent extract of membranes; not shown: EGFP, C-terminal, kept; HA, C-terminal, kept
# Target: the molecule itself
# Assay: single molecule pulldown with stepwise photobleaching subunit counting; C-terminal EGFP-HA fusion expressed alone in LRRC8 knockout HEK293 cells, GDN extract used directly, immobilised on passivated coverslips with biotinylated anti-HA, TIRF imaging of EGFP bleaching steps
protein,measurement,value
B1,stoichiometry N,2
